Experimental findings from a protein production outcome set (Wang et al. 2014) are described below.
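Note: failed if final PepcDB status was selected cloned or expressed and not failed if soluble or beyond.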

The data set in a line: label from the status in PepcDB records.
With “MTNVRVIKPALAALVAAAACVGGLAFSSAQPAQADTYSDLINAQNQHAASVQREAELKQQLAGASQDLANKVLELDDLTNNKIVAAQAKVTQANEDAATAQDEADAASGRLSAAQKDKETLEEQIKQTGKDYDDAHAAVAQLARDEMHGSNASDVMSVVTGATSTQDFVNSMQSRDALSRNEANAASSAATSLSTSKNRGERLAAIEKQIAVLKTQSDEKAASAQTAAETAQSERDALDKLRQEGETRRNELSSMVDSLDSQSAKQAAQTVLIASQVDSYNRQFQKEQQDAANRVDTGNQGGTPSTPVTPAPAPAPAPAPAPAPAPAPAPSVGGQGTSNGDYGNAYAAGQCTYWAYERRRQMGIGTPSYLGNGGFWWRSAPAYGLRVDHTPQVGAALSFLPGQDGADGTYGHVAVVEAVYGDGTFQISEMNWGGPWNMHYRTLTNLGQYWFVH”, the protein production result is given as “failed”.

For “MNATHEALAIRARPRPASAPSAVLTLAWRAMLKIKHVPFQLFDVTVTPIMFTLLFTFIFGGALAGSPRQYVQYLVPGVLVQTVLFITVYTGVGLNSDIRKGLYDRFRSLPMWQPAPLLGALAGDVFRYSVAGGVILVVGFILGFRPQGGAPGVLAAMALVLVFSFALSWLWIVVGMLVRTPESVMTTSFVFLMPLTFASDIFVGLGTMPGWLQGVVRHNPVTHLANASRDLMHGRPAGADVSWTLLASLVIVAAVAPLAMRLYRKER”, the protein production result is reported as “failed”.

With “MMIIIRVAIMISVVFYLYFIINLLLINHYREPIQSYEKGPTPYELFLVIPVLNEEHVISRTITQLTESLEQLPPTVHAQIIAVDDDSTDHSLLLLTQSSSRFLQILHRTGNQRAGKGAVLNTAVQYIHKTLALKSDPQRTIVGVLDADAFMNTADLTRVLAHFEQEPQLAMIQTSVNIYNQPNWLTKMQNFEFMGVNNATQQLRNRLGQGIASGNGQFVRLDLALQNPWGNSLLEDLEFTLRTWLLGGTRTAFDHTLVVQQEAVEQLRPFFRQRVRWCQGAVQCMRYLPALWRSGRLNHFQKLDTTFWILMPISGCIVPLTSLITLVVLVSRSLQHWQVGWHHLAIGTLLVIAFSACLVLAALYQRNCAVVKQPVGFLDALKQSLTFQAFLLIISLTPYVAIYRQLRGQTGWAKTHHGVTTRVAKYPDTGLKRSY”, the protein production entry is “failed”.

Take “MSAEKSISSDHVPLSDPALKTINRNAGRNLNHIAFISTLGGLLFGVDTGVINGAIGYMATPAELNLSPNNEGLVTSGITLGAAFGAVFAGHLSDRIGRKRLLKYLALLFFVCTLACSLAPNALFMIISRVLLGLAVGGASVIVPTYLSEISTPEIRGRLVTQNELMIVTGQLLAFIVNAILGNWFGHISNIWRYMIGFGMIPAVALFFGMMVVPESPRWLVMVNQLDNAFDSLRKIRSHPETCNEEITQIQDTLNQESEIKQATFKDLSTPWIRRLVFIGIGLGVMQQFIGINIMMYYGTTILTNSGFAHNAALIANIGNGLVSVIATFIGMSIMNRVNRRSMLIAGIIGTTTSLILIVGVSAFLSQSPLLPILVVLCTMMFLGFFQGFISPLVWLLLSEIFPQNLRGLGMGVSTFFLWFANFLVGYFFPILLSAVGMTWTFLIFVFFNILSFIFAYKYAPETRGKSLELIQMEFKYGDTTGINPEDK”: the protein production entry was “failed”.

As to “PRSRTKISLEALGILQSFIHDVGLYPDQEAIHTLSAQLDLPKHTIIKFFQNQRYHVKH”, the protein production entry is recorded as “not failed”.

For the sequence “MKTKSWIASLFYSSLCFSSSYAINLHQITITDPIMGSRTITYEQVGEFAVVEGDILIGKAENLKNQGAVITPKVGGSRWPNGVIPYEIAENLPFINKLAILQAIDHWQKNTNLEFVELTSKNRYDYRDYISFIPAEGTTCSSYVGRQGGKQEINLAPRCTTMNTVHEIGHALGMWHEQSRSDRNQYIRIVWENIDEEHKFNFDQHLTDGKDFGEYDYGSIMHYGRFAFSKNGQPTIIPLVDGVEIGQRTHLSEKDIAAVKAMYPET”, the protein production result is reported as “failed”.

In the case of “MTTHITKAPAYWSRDAIWPGIVAVGPMLPGTLAFGMAFGALCAQKNFTLAEVEVMMATVYGGLSQFVAVQAWPDQLTPSTIAALALLTTTVNIRFFLMTASMRPWFGTLPAWQAYPPLLLVTDGGWLAAMRYREHGGANAWFYLGGALVLYLVWLVSAIPGFLLAEQLADPKKFGVDIAMPAFFAALLVPAWKGPRRAIPWLVSGIVALTVHWLIPGYWFIIAGALSGAITAGLMDEPPVATSHAGHSS”, the protein production result was “failed”.
